Measurements taken from patent publication US20100260668A1 (published 2010).

Tests used:
[1] = molecular target: T1, DLL4 ECD/His tag (R&D 1506-D4-050) (UniProt Q9NR61 27-529); assay: direct bind ELISA, DLL4 on plate; DLL4 VD N-term.; HC Short, LC Short
T1 construct: extracellular domain; Bought antigen coated on the ELISA plate; not shown: His tag

[2] = molecular target: T1, DLL4 ECD/His tag (R&D 1506-D4-050); assay: direct bind ELISA, DLL4 on plate; DLL4 VD N-term.; HC Long, LC Long
Method: (§1) Enzyme Linked Immunosorbent Assays to screen for antibodies that bind a desired target antigen were performed as follows. […] Plates were washed four times with PBS containing 0.02% Tween 20. Plates were blocked by the addition of 300 μL/well blocking solution (non-fat dry milk powder, various retail suppliers, diluted to 2% in PBS) for ½ hour at room temperature. Plates were washed four times after blocking with PBS containing 0.02% Tween 20.
Alternatively, one hundred microliters per well of 10 μg/ml of Histidine (His) tagged desired target antigen (R&D Systems, Minneapolis, Minn.) was added to ELISA plates coated with monoclonal mouse anti-polyHistidine antibody as described above and incubated for 1 hour at room temperature. Wells were washed four times with PBS containing 0.02% Tween 20.
One hundred microliters of antibody or DVD-Ig preparations diluted in blocking solution as described above was added to the desired target antigen plate or desired target antigen/FC fusion plate or the anti-polyHistidine antibody/His tagged desired target antigen plate prepared as described above and incubated for 1 hour at room temperature. Wells are washed four times with PBS containing 0.02% Tween 20.

[3] = molecular target: T2, PlGF (UniProt P49763-2 21-149, limits assumed); assay: direct bind ELISA, antigen on plate; N-terminal VD
T2 construct: Bought antigen coated on the ELISA plate; also called Placental GF; placental growth factor
T2 sequence (looked up): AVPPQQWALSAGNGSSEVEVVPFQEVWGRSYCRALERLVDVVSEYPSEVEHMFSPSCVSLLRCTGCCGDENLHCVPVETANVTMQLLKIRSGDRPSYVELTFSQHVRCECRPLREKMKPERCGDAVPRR
Method: as §1
(§2) Plates were washed 4 times with PBS containing 0.02% Tween 20.

[4] = molecular target: T3, VEGF (UniProt P15692 27-191, limits assumed); assay: direct bind ELISA, antigen on plate; C-terminal VD
T3 construct: Bought antigen coated on the ELISA plate; also called vascular endothelial growth factor
T3 sequence (P15692 other isoform, or with tags, fused parts or gaps limits assumed): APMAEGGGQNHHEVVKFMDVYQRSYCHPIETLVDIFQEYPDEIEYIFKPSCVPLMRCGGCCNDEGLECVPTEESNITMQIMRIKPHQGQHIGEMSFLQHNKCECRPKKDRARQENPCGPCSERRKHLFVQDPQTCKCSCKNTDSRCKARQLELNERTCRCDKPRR
Method: as §1, §2

[5] = molecular target: T4, VEGF (biotinylated VEGF; VEGF165) (UniProt P15692-4 27-191, biotinylated (sites not given)); assay: competition ELISA: DVD-Ig pre-incubated with 2 nM biotinylated VEGF, then on coated VEGFR1 ECD-Fc (competitor VEGFR1-Fc)
T4 construct: the method paragraph says only 'biotinylated VEGF'
T4 sequence (P15692 other isoform, or with tags, fused parts or gaps limits assumed): as above

[6] = molecular target: T5, human DLL4 on 293G-human DLL4 cells (human, UniProt Q9NR61 27-685); assay: FACS: inhibition of Notch1 binding to 293G-human DLL4 cells (competitor Notch1)
T5 construct: whole, on cells; no method paragraph describes this FACS assay

[7] = molecular target: T6, human DLL4 extracellular domain (human, UniProt Q9NR61 27-529, biotin label in the Notch-1 competition ELISA (sites not given)); assay: competition ELISA: 14 nM biotin-labelled human DLL4 ECD pre-mixed with DVD-Ig, then on coated human Notch-1 (competitor Notch-1)
T6 construct: extracellular domain; also called biotin labeled human DLL4 extracellular domain

[8] = molecular target: T6, human DLL4 extracellular domain; assay: cell-based or functional assay

B1: DVD515 (bispecific antibody, human IgG1, kappa)
heavy: not shown
light: QAVVTQESALTTSPGETVTLTCRSSTGAVTTSNYANWVQEKPDHLFTGLIGGTNNRAPGVPARFSGSLIGDKAALTITGAQTEDEAIYFCALWYSNHWVFGGGTKLTVLGQPKAAPDIQMTQSPSSLSASVGDRVTITCRASQVIRRSLAWYQQKPGKAPKLLIYAASNLASGVPSRFSGSGSGTDFTLTISSLQPEDFATYYCQQSNTSPLTFGQGTKVEIKRTVAAPSVFIFPPSDEQLKSGTASVVCLLNNFYPREAKVQWKVDNALQSGNSQESVTEQDSKDSTYSLSSTLTLSKADYEKHKVYACEVTHQGLSSPVTKSFNRGEC
notes: DVD-Ig; outer AB073 (DLL4), inner AB071 (VEGF); HC short, LC short linker; also called DVD515H; DVD515L
EC50 [1]: 0.2 nM

B2: DVD473 (bispecific antibody, human IgG1, kappa)
heavy: not shown
light: DIQMTQSPSSLSASVGDRVTITCRASQDVSTAVAWYQQKPGKAPKLLIYSASFLYSGVPSRFSGSGSGTDFTLTISSLQPEDFATTYYCQQSYTGTVTFGQGTKVEIKRTVAAPSVFIFPPDIQMTQSPSSLSASVGDRVTITCRASQVIRRSLAWYQQKPGKAPKLLIYAASNLASGVPSRFSGSGSGTDFTLTISSLQPEDFATYYCQQSNTSPLTFGQGTKVEIKRTVAAPSVFIFPPSDEQLKSGTASVVCLLNNFYPREAKVQWKVDNALQSGNSQESVTEQDSKDSTYSLSSTLTLSKADYEKHKVYACEVTHQGLSSPVTKSFNRGEC
notes: DVD-Ig; outer AB015 (DLL4), inner AB071 (VEGF); HC long, LC long linker; also called DVD473H; DVD473L
EC50 [2]: 1.8 nM

B3: DVD599 (bispecific antibody, human IgG1, kappa)
heavy: not shown
light: DIVLTQSPDSLAVSLGERVTMNCKSSQSLLNSGMRKSFLAWYQQKPGQSPKLLIYWASTRESGVPDRFTGSGSGTDFTLTISSVQAEDVAVYYCKQSYHLFTFGSGTKLEIKRTVAAPSVFIFPPDIQMTQSPSSLSASVGDRVTITCRASQVIRRSLAWYQQKPGKAPKLLIYAASNLASGVPSRFSGSGSGTDFTLTISSLQPEDFATYYCQQSNTSPLTFGQGTKVEIKRTVAAPSVFIFPPSDEQLKSGTASVVCLLNNFYPREAKVQWKVDNALQSGNSQESVTEQDSKDSTYSLSSTLTLSKADYEKHKVYACEVTHQGLSSPVTKSFNRGEC
notes: DVD-Ig, N-terminal PlGF (AB047), C-terminal VEGF (AB071); HC linker short, LC linker long; also called DVD599VH; DVD599VL
EC50 [3]: 0.23 nM | EC50 [4]: 664 nM

B4: DVD467 (bispecific antibody, human IgG1, kappa)
heavy: not shown
light: DIQMTQSPSSLSASVGDRVTITCRASQDVSTAVAWYQQKPGKAPKLLIYSASFLYSGVPSRFSGSGSGTDFTLTISSLQPEDFATTYYCQQSYTGTVTFGQGTKVEIKRTVAAPDIQMTQSPSSLSASVGDRVTITCRASQVIRRSLAWYQQKPGKAPKLLIYAASNLASGVPSRFSGSGSGTDFTLTISSLQPEDFATYYCQQSNTSPLTFGQGTKVEIKRTVAAPSVFIFPPSDEQLKSGTASVVCLLNNFYPREAKVQWKVDNALQSGNSQESVTEQDSKDSTYSLSSTLTLSKADYEKHKVYACEVTHQGLSSPVTKSFNRGEC
notes: DVD-Ig; outer AB015 (DLL4), inner AB071 (VEGF); HC short, LC short linker; also called DVD467H; DVD467L
EC50 [1]: 0.54 nM

B5: DVD471 (DLL4 (seq. 1) N-terminal / VEGF (AB070) C-terminal DVD-Ig, long HC linker, long LC linker) (bispecific antibody, human IgG1, kappa, L234A L235A)
heavy: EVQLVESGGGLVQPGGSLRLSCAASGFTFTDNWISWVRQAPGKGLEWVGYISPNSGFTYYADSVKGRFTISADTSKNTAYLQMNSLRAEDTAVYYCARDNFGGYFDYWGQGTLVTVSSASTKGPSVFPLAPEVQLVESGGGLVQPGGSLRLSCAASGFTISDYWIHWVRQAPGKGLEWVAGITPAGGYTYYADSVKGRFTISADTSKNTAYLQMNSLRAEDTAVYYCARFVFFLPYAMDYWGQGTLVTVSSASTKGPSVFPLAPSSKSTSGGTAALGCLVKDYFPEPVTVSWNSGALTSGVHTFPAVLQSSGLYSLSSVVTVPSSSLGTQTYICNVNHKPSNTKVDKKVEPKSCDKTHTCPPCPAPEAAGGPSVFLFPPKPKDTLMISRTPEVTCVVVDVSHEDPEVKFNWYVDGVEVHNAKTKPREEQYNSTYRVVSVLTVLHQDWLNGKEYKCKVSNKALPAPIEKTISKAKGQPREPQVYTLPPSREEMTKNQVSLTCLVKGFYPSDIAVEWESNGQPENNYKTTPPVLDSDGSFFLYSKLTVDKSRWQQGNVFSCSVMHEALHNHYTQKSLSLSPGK
light: DIQMTQSPSSLSASVGDRVTITCRASQDVSTAVAWYQQKPGKAPKLLIYSASFLYSGVPSRFSGSGSGTDFTLTISSLQPEDFATTYYCQQSYTGTVTFGQGTKVEIKRTVAAPSVFIFPPDIQMTQSPSSLSASVGDRVTITCRASQDVSTAVAWYQQKPGKAPKLLIYSASFLYSGVPSRFSGSGSGTDFTLTISSLQPEDFATYYCQQSYTTPPTFGQGTKVEIKRTVAAPSVFIFPPSDEQLKSGTASVVCLLNNFYPREAKVQWKVDNALQSGNSQESVTEQDSKDSTYSLSSTLTLSKADYEKHKVYACEVTHQGLSSPVTKSFNRGEC
notes: also called DVD471H/DVD471L
IC50 [5]: 5.46 nM | IC50 [6]: 4.1 nM | IC50 [7]: 2.66 nM | DVD-Ig Inhibition of sFlt1 (IC50, nM) [8]: 1.92 nM

B6: DVD445 (bispecific antibody, human IgG1, kappa)
heavy: not shown
light: DIVMTQSPDSLAVSLGERATISCRASESVDNYGISFMKWFQQKPGQPPKLLIYAASNQGSGVPDRFSGSGSGTDFTLTISSLQAEDVAVYYCQQSKEVPWTFGGGTKVEIKRTVAAPDIQMTQSPSSLSASVGDRVTITCRASQVIRRSLAWYQQKPGKAPKLLIYAASNLASGVPSRFSGSGSGTDFTLTISSLQPEDFATYYCQQSNTSPLTFGQGTKVEIKRTVAAPSVFIFPPSDEQLKSGTASVVCLLNNFYPREAKVQWKVDNALQSGNSQESVTEQDSKDSTYSLSSTLTLSKADYEKHKVYACEVTHQGLSSPVTKSFNRGEC
notes: DVD-Ig; outer AB069 (DLL4), inner AB071 (VEGF); HC short, LC short linker; also called DVD445H; DVD445L
EC50 [1]: 0.17 nM

B7: DVD451 (bispecific antibody, human IgG1, kappa, L234A L235A)
heavy: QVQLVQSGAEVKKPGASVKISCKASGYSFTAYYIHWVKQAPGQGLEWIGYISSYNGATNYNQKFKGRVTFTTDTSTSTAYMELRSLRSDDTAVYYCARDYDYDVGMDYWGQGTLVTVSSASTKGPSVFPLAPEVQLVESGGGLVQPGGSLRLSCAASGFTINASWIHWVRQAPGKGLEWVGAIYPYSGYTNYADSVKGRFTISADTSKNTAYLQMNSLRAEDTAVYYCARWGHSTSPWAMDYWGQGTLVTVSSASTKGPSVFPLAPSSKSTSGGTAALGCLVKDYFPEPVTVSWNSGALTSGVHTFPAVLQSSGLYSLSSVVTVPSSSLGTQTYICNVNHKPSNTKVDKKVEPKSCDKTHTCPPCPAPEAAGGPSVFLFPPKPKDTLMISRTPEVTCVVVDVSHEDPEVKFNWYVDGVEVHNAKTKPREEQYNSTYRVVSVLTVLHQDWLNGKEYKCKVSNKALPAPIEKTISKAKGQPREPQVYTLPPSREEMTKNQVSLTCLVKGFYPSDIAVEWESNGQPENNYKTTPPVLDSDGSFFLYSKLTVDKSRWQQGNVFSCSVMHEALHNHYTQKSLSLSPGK
light: DIVMTQSPDSLAVSLGERATISCRASESVDNYGISFMKWFQQKPGQPPKLLIYAASNQGSGVPDRFSGSGSGTDFTLTISSLQAEDVAVYYCQQSKEVPWTFGGGTKVEIKRTVAAPSVFIFPPDIQMTQSPSSLSASVGDRVTITCRASQVIRRSLAWYQQKPGKAPKLLIYAASNLASGVPSRFSGSGSGTDFTLTISSLQPEDFATYYCQQSNTSPLTFGQGTKVEIKRTVAAPSVFIFPPSDEQLKSGTASVVCLLNNFYPREAKVQWKVDNALQSGNSQESVTEQDSKDSTYSLSSTLTLSKADYEKHKVYACEVTHQGLSSPVTKSFNRGEC
notes: DVD-Ig; outer AB069 (DLL4), inner AB071 (VEGF); HC long, LC long linker; also called DVD451H; DVD451L
EC50 [2]: 0.4 nM

B8: DVD491 (bispecific antibody, human IgG1, kappa)
heavy: not shown
light: DIQMTQSSSYLSVSLGGRVTITCKASDHINNWLAWYQQKPGNAPRLLISGATSLETGVPSRFSGSGSGKDYTLSITSLQTEDVATYYCQQYWSIPLTFGAGTKLELKRTVAAPDIQMTQSPSSLSASVGDRVTITCRASQVIRRSLAWYQQKPGKAPKLLIYAASNLASGVPSRFSGSGSGTDFTLTISSLQPEDFATYYCQQSNTSPLTFGQGTKVEIKRTVAAPSVFIFPPSDEQLKSGTASVVCLLNNFYPREAKVQWKVDNALQSGNSQESVTEQDSKDSTYSLSSTLTLSKADYEKHKVYACEVTHQGLSSPVTKSFNRGEC
notes: DVD-Ig; outer AB072 (DLL4), inner AB071 (VEGF); HC short, LC short linker; also called DVD491H; DVD491L
EC50 [1]: 0.39 nM

B9: DVD476 (VEGF (seq. 1) N-terminal / DLL4 (seq. 1) C-terminal DVD-Ig, long HC linker, short LC linker) (bispecific antibody, human IgG1, kappa)
heavy: not shown
light: DIQMTQSPSSLSASVGDRVTITCSASQDISNYLNWYQQKPGKAPKVLIYFTSSLHSGVPSRFSGSGSGTDFTLTISSLQPEDFATYYCQQYSTVPWTFGQGTKVEIKRTVAAPDIQMTQSPSSLSASVGDRVTITCRASQDVSTAVAWYQQKPGKAPKLLIYSASFLYSGVPSRFSGSGSGTDFTLTISSLQPEDFATTYYCQQSYTGTVTFGQGTKVEIKRTVAAPSVFIFPPSDEQLKSGTASVVCLLNNFYPREAKVQWKVDNALQSGNSQESVTEQDSKDSTYSLSSTLTLSKADYEKHKVYACEVTHQGLSSPVTKSFNRGEC
notes: also called DVD476H/DVD476L
IC50 [5]: 2.4 nM | IC50 [6]: 15.1 nM | IC50 [7]: 4.9 nM | DVD-Ig Inhibition of sFlt1 (IC50, nM) [8]: 1.68 nM

B10: DVD597 (bispecific antibody, human IgG1, kappa)
heavy: not shown
light: DIVLTQSPDSLAVSLGERVTMNCKSSQSLLNSGMRKSFLAWYQQKPGQSPKLLIYWASTRESGVPDRFTGSGSGTDFTLTISSVQAEDVAVYYCKQSYHLFTFGSGTKLEIKRTVAAPSVFIFPPDIQMTQSPSSLSASVGDRVTITCRASQDVSTAVAWYQQKPGKAPKLLIYSASFLYSGVPSRFSGSGSGTDFTLTISSLQPEDFATYYCQQSYTTPPTFGQGTKVEIKRTVAAPSVFIFPPSDEQLKSGTASVVCLLNNFYPREAKVQWKVDNALQSGNSQESVTEQDSKDSTYSLSSTLTLSKADYEKHKVYACEVTHQGLSSPVTKSFNRGEC
notes: HC linker short, LC linker long; also called DVD597VH; DVD597VL
EC50 [3]: 0.17 nM | EC50 [4]: 31.1 nM

B11: DVD521 (bispecific antibody, human IgG1, kappa, lambda, L234A L235A)
heavy: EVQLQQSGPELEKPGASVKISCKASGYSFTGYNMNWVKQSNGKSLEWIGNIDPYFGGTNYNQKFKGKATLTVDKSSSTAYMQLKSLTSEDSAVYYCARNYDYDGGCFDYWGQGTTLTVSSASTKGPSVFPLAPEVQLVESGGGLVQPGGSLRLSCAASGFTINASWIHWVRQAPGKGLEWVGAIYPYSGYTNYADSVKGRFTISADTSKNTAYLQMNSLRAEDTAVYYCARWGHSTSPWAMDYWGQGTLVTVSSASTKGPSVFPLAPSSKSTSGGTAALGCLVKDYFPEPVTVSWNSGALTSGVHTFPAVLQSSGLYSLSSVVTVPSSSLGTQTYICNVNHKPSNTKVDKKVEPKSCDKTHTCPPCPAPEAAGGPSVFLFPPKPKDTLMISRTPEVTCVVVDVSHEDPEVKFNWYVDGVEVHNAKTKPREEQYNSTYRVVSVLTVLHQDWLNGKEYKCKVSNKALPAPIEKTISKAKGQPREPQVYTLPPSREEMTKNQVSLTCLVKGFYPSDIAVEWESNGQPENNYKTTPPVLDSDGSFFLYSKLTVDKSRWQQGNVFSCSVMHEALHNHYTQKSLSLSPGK
light: QAVVTQESALTTSPGETVTLTCRSSTGAVTTSNYANWVQEKPDHLFTGLIGGTNNRAPGVPARFSGSLIGDKAALTITGAQTEDEAIYFCALWYSNHWVFGGGTKLTVLGQPKAAPSVTLFPPDIQMTQSPSSLSASVGDRVTITCRASQVIRRSLAWYQQKPGKAPKLLIYAASNLASGVPSRFSGSGSGTDFTLTISSLQPEDFATYYCQQSNTSPLTFGQGTKVEIKRTVAAPSVFIFPPSDEQLKSGTASVVCLLNNFYPREAKVQWKVDNALQSGNSQESVTEQDSKDSTYSLSSTLTLSKADYEKHKVYACEVTHQGLSSPVTKSFNRGEC
notes: DVD-Ig; outer AB073 (DLL4), inner AB071 (VEGF); HC long, LC long linker; also called DVD521H; DVD521L
EC50 [2]: 0.26 nM

B12: DVD470 (VEGF (seq. 1) N-terminal / DLL4 (seq. 1) C-terminal DVD-Ig, long HC linker, long LC linker) (bispecific antibody, human IgG1, kappa)
heavy: not shown
light: DIQMTQSPSSLSASVGDRVTITCSASQDISNYLNWYQQKPGKAPKVLIYFTSSLHSGVPSRFSGSGSGTDFTLTISSLQPEDFATYYCQQYSTVPWTFGQGTKVEIKRTVAAPSVFIFPPDIQMTQSPSSLSASVGDRVTITCRASQDVSTAVAWYQQKPGKAPKLLIYSASFLYSGVPSRFSGSGSGTDFTLTISSLQPEDFATTYYCQQSYTGTVTFGQGTKVEIKRTVAAPSVFIFPPSDEQLKSGTASVVCLLNNFYPREAKVQWKVDNALQSGNSQESVTEQDSKDSTYSLSSTLTLSKADYEKHKVYACEVTHQGLSSPVTKSFNRGEC
notes: also called DVD470H/DVD470L
IC50 [5]: 2.7 nM | IC50 [6]: 38.3 nM | IC50 [7]: 2.82 nM | DVD-Ig Inhibition of sFlt1 (IC50, nM) [8]: 1.02 nM

B13: DVD482 (VEGF (seq. 1) N-terminal / DLL4 (seq. 1) C-terminal DVD-Ig, short HC linker, long LC linker) (bispecific antibody, human IgG1, kappa)
heavy: not shown
light: B12 light
notes: also called DVD482H/DVD482L
IC50 [5]: 1.7 nM | IC50 [6]: 16.3 nM | IC50 [7]: 2.65 nM | DVD-Ig Inhibition of sFlt1 (IC50, nM) [8]: 1.11 nM
